Laboratory results from the DeepSol protein solubility set.

Assay: soluble on expression in E. coli; label from the status in PepcDB or PDB records

Row | Sequence | soluble on expression in E. coli
1 | SAIITTTTVRFTDGTSPTFFSSASTKAYNLHFLYSNSTQRLTNPKFGIGGKLKVTVNPYSYTEEVRPEERKSLTDFLTEAGDFVNSDGGDGGPPRWFSPLECGARAPESPLLLYLPGIDGTGLGLIRQHKRLGEIFDIWCLHFPVKDRTPARDIGKLIEKTVRSEHYRFPNRPIYIVGESIGASLALDVAASNPDIDLVLILANPVTRFTNLMLQPVLALLEILPDGVPGLITENFGFYQEMFETMLNENDAAQMGRGLLGDFFATSSNLPTLIRIFPKDTLLWKLQLLKSASASANSQMDTVNAQTLILLSGRDQWLMNKEDIERLRGALPRCEVRELENNGQFLFLEDGVDLVSIIKRAYYYRRGKSLDYISDYILPTPFEFKEYEESQRLLTAVTSPVFLSTLKNGAVVRSLAGIPSEGPVLYVGNHMLLGMELHAIALHFLKERNILLRGLAHPLMFTKKTGSKLPDMQLYDLFRIIGAVPVSGMNFYKLLRSKAHVALYPGGVREALHRKGEEYKLFWPEHSEFVRIASKFGAKIIPFGVVGEDDLCEMVLDYDDQMKIPFLKNLIEEITQDSVNLRNDEEGELGKQDLHLPGIVPKIPGRFYAYFGKPIDTEGREKELNNKEKAHEVYLQVKSEVERCMNYLKIKRETDPYRNILPRSLYYLTHGFSSQIPTFDLRNH | not soluble
2 | MSLKIRDPYIDERTNMVVIRESPDVVRLAERLVELQDRNDSEVVLEVEVLEVSSTKLTQLGVQYPNSFTLTPLSATGASSLTLSDFKGLNSDRIGVSTPNVVLNLRRELGDTDLLANPKIRAKNHEKAKILIGDKLPVITTTSTSTGFVSESVQYIDVGLKLEVEPSISPDDEVSMKINLEVSSLTNQITTRSGTVAYQIGTRTANTVLKLHDGETQLLAGLIKTQQTSSAARIPGLGDIPLLGRLFSSQTDNGVRNEIVLSITPRVVKPSHRPDTNEGHHHHHH | soluble
3 | MGSDKIHHHHHHMESTRRIYASPSYEVYGLSRNPFIELASEGIEDIESIHVYQEVDMRISSLISDVIGNRSSITLSIVGPLGMGKTQRLKSIARVIEDRGGKVIYIKVDTTDVLKITRDIFASLRPPKNRTNVFLENLSRKLGFITRLEKMLSSTDEYKSRDIAEMLTRELSKYQYSALLLDELENMRGATEKEKILFFEMLRHFISNMPPGCVFAFASIPEAYEEYSSQFPAFFMRLHYEFKLRPMSYQEIIELVKKRLAKVRIRDTADPLYPFTEDAIKLIHELGKGNPRQILRLLNYVLSEAVKHKFDPINEYVVTTILEEPKSLEEYIARIPSDFKDLVKVIVEKFEGGPVSYIQIAKELKIPGMEAYEKLEHLVSLGFLVGDPRGNYKVPDYVRKFLEEKGE | not soluble
4 | MGSDKIHHHHHHMREYIKEGIKLAVTNIPEDVVSAIREALEREESKIAKYNLEMILKAIDISRKEGIPVCQDTGTPIFFVRTNGPINKIYDEIVKGVEIATREVPLRPNALHVLDGKVIGNVPEVHFEPGKETLISILMKGGGSENCTALFPLTPAEGLEGVKNKVIEHVQSCGGKPCPPIIVGIGIASPAEKAIILAKKALLRRISERHPNEKLAKFERELLEEINSLGIGPMGLGGRTTALDVKVEVETRHPASYIVGVVIQCWAHRRAFIKVSEGGVKIWQ | not soluble
5 | EVQLVESGGDLVKPGGSLKLSCAASGFTFSSYGMSWIRQTPDKRLEWVATISSGGSYTYYPDSVKGRFTISRDNAKNTLYLQMSSLKSEDTAMFYCARQTTMTYFAYWGQGTLVTVSAAKTTPPSVYPLAPGSAAQTNSMVTLGCLVKGYFPEPVTVTWNSGSLSSGVHTFPAVLQSDLYTLSSSVTVPSSPRPSETVTCNVAHPASSTKVDKKIEPA | soluble
6 | MSKSICKSSMRAAVVRRFGAPDVIEAVESDMPRLEKNQVLVRNYAAGVNPVDTYIRAGQYGKLPNLPYVPGKDGAGFVELVGESVKNVKVGDRVWYGSEADSTAEYVAVNRPFELPEGVSFEEGASLGVPYLTAYRALFHLAGAKTGDVILVHGASGGVGSALMQLAAWRNIEAVGTAGSADGIRFVKSLGARNVYNHSDKQYVSKMKNDYPGGFNHIFEMAAHTNLNTDLGLLAPRGRVAVIGNRAETTINARQLMVTEGAVYGVALGMSSEAELLDFGINIVSFLKETEFRPLINKLYRLEQLGLAHEEIMNNKGAKGNLVVQIEH | not soluble
7 | MNAFFTRALKPGARPLDETPGAILCPADGAVSQLGPIEHGRIFQAKGHGFSAQELLGGDPAMAAPFMGGEFATIYLSPKDYHRVHMPLAGTLREMVYVPGRLFSVNQTTAENVPELFARNERVVCLFDTERGPMAVVLVGAMIVASIETVWAGLVTPPKRELKTFRYDEASRTPIHLEKGAELGRFKLGSTAIVLFGPEQVKWAESLGAGSAVRMGQQLAAPAQALEHHHHHH | not soluble
8 | MKPLTDTDYIHALIAEGEHQQQDFKFEISDTRKIAKTLSAFANTDGGRLLIGVKDNGKIAGVRSDEEKYMIEAAAQLYCWPEVDYSMQTFHVEGRSVLVVQIDESEHKPVFAKDENGKSLAYIRIKDENILATPVHLRVWQQSGSPAGELIRYTEREQLLLDLLEENTSLSLNRYCRQAGISRRAAEHLLAKFIRFDIVEPIFENHKFYFRLKLEHHHHHH | soluble
9 | NLLEEESAVLGQAVTNLMLSGDNVNNKNIILSLIHSLETTSDILKADVIRKTLEIVLRYTADDM | soluble
10 | MGSDKIHHHHHHMFENILWKMVKKRLIPKRKISRVHRSRKGVKRVVCVAFPLDQMFKSADDFIDALMEILQEDLPFVDLLIFPRLTGNLLAGVSPIRIENFEKLDPFYTDLLRYISKGLDVPIVAPGVETFRTSPDVLVIENGEVLHRYTLRERFAVADFGEWYAAVLRKEDTLSSKALRPLVEKNVFAFIHFDLETEENDWWKEKKGLWARSQSLEVFGIKVSPRGTFLGKTYRGKSYVSAPIPLTPNLTGFLRQDCGVKMSVDLELDLLKGKRHRIDTVKHILFRG | not soluble
11 | MRNTMRSFILRARSAPTDSQRLLDEIGGKCHTEILAHCMMNSLFTAQSHREDVVIHLVLESTRDYSRTITVEANEISDVGGFHEAALIALLVKALDASVGMGKEQTRVVQPGLTVRTISFEALLGELAEHHSLYMMDKKGDSIRDIKIGPNPCFILTDHIPMPKKSGNSMKRLGVEKISLGPKMLFASQCVTLIHNEIDHQEAGW | soluble
12 | MGSDKIHHHHHHMNKIINNILNTCKQYTYILPHKLLRQYIAHYTISIPDTSIKENLTLIPDASGCMIFKFDKKGIESAFWGATTKTTIVKNDIENVLFRVFVEFRPGGVYYLTGLSQRESTDLKISLEDFNTLFSLEVNSIFERTSTIKELVEQLDMLFLSYLLKSNIVDMTIPILENARKQNSIMSVKNISQISCYSERHLNRIFNNSLGMSVKSYLRLLRINLVLQEIQNNKIPFATLAQDIGYYDQSHFINDFKSICGVNPTTYIKNLSDFYNEKYKF | not soluble
13 | MKIVLISGLSGSGKSVALRQMEDSGYFCVDNLPLEMLPALVSYHIERADETELAVSVDVRSGIDIGQAREQIASLRRLGHRVEVLFVEAEESVLVRRFSETRRGHPLSNQDMTLLESLKKEREWLFPLKEIAYCIDTSKMNAQQLRHAVRQWLKVERTGLLVILESFGFKYGVPNNADFMFDMRSLPNPYYDPELRPYTGMDKPVWDYLDGQPLVQEMVDDIERFVTHWLPRLEDESRSYVTVAIGCTGGQHRSVYIVEKLARRLKGRYELLIRHRQAQNLSDR | not soluble
14 | GAMGKVTHSIHIEKSDTAADTYGFSLSSVEEDGIRRLYVNSVKETGLASKKGLKAGDEILEINNRAADALNSSMLKDFLSQPSLGLLVRTYPEL | soluble
15 | GAKPRNLNVSFQGCGMDSLSVRAMDTDTLTQVKEKILEAFCKNVPYSQWPRAEDVDLEWFASSTQSYILRDLDDTSVVEDGRKKLNTLAHYKIPEGASLAMSLIDKKDNTLGRVKDLDTEKYFHLVL | soluble
16 | MSLRRARIAFASIDYTGDAWRHIPSVIGEMFAGIGEHAWRRDAVLEIVGVEDEEAEGYLRRVAERRPVDGLLLRVANDIRGEHLDILERAGMPYVLIKRHIPGRRMNCVISDDVTGARMATSHLLELGHRRIGFVCGKPHLTLNRERLAGYREALEEHGVGFDEGLVRQEEHFTTEMGYRAVRSLLEAPSRPSAVFVASDTMAIGGYEAVWDLGLRIPDDVSIVGYDDIQAASALQPPLTTVRTSYYDFGRLAAQLLLDLIEGREVAPQRRVIHPTLVVRGSTREGHHHHHH | soluble
